This note sets out measurements from publication doi:10.1101/2022.09.01.506260 (bioRxiv, 2022).

B1: PEAK1 1150-1162 proline-rich motif peptide (peptide)
peptide: Ac-PTPPPLPKKMIIR-NH2
B2: CrkII NSH3 domain (CrkII^NSH3) (domain or fragment)
chain: AEYVRALFDFNGNDEEDLPFKKGDILRIRDKPEEQWWNAEDSEGKRGMIPVPYVEKYR
B3: PEAK3^tandem-pS69 phosphopeptide (residues 54-74) (peptide)
peptide: Ac-PLPPPLPKKILTRTQ[pS]LPTRR-NH2
B4: PEAK2 809-821 proline-rich motif peptide (peptide)
peptide: Ac-QPPPLPQKKIVSR-NH2
B5: PEAK2^IDR1 (N-terminally truncated PEAK2, residues 802-1406) (domain or fragment)
chain: EDVSPSGPQQPPPLPQKKIVSRAASSPDGFFWTQGSPKPGTASPKLNLSHSETNVHDESHFSYSLSPGNRHHPVFSSSDPLEKAFKGSGHWLPAAGLAGNRGGCGSPGLQCKGAPSASSSQLSVSSQASTGSTQLQLHGLLSNISSKEGTYAKLGGLYTQSLARLVAKCEDLFMGGQKKELHFNENNWSLFKLTCNKPCCDSGDAIYYCATCSEDPGSTYAVKICKAPEPKTVSYCSPSVPVHFNIQQDCGHFVASVPSSMLSSPDAPKDPVPALPTHPPAQEQDCVVVITREVPHQTASDFVRDSAASHQAEPEAYERRVCFLLLQLCNGLEHLKEHGIIHRDLCLENLLLVHCTLQAGPGPAPAPAPAPAPAAAAPPCSSAAPPAGGTLSPAAGPASPEGPREKQLPRLIISNFLKAKQKPGGTPNLQQKKSQARLAPEIVSASQYRKFDEFQTGILIYELLHQPNPFEVRAQLRERDYRQEDLPPLPALSLYSPGLQQLAHLLLEADPIKRIRIGEAKRVLQCLLWGPRRELVQQPGTSEEALCGTLHNWIDMKRALMMMKFAEKAVDRRRGVELEDWLCCQYLASAEPGALLQSLKLLQLL
modifications: phosphorylation of the tandem site 14-3-3 motif (RAASSP, first S of SS underlined) found by proteomic analysis
B6: CrkII SH2 domain (CrkII^SH2) (domain or fragment)
chain: DSEERSSWYWGRLSRQEAVALLQGQRHGVFLVRDSSTSPGDYVLSVSENSRVSHYIINSSGPRPPVPPSPAQPPPGVSPSRLRIGDQEFDSLPALLEFYKIHYLDTTTLIEPVSR
B7: PEAK3^tandem peptide, non-phosphorylated (residues 54-74) (peptide)
peptide: Ac-PLPPPLPKKILTRTQSLPTRR-NH2
B8: PEAK2^tandem-pS826 phosphopeptide (residues 812-831) (peptide)
peptide: Ac-PPPLPQKKIVSRAA[pS]SPDGF-NH2
B9: PEAK2 709-721 proline-rich motif peptide (peptide)
peptide: Ac-FSPPPPPPKSRHL-NH2
B10: PEAK1^IDR1 (N-terminally truncated PEAK1, residues 1082-1746) (domain or fragment)
chain: LPELEREDGKEDISDPMDPNPCSATYSNLGQSRAAMIPPKQPRQPKGAVDDAIAFGGKTDQEAPNASQPTPPPLPKKMIIRANTEPISKDLQKSMESSLCVMANPTYDIDPNWDASSAGSSISYELKGLDIESYDSLERPLRKERPVPSAANSISSLTTLSIKDRFSNSMESLSSRRGPSCRQGRGIQKPQRQALYRGLENREEVVGKIRSLHTDALKKLAVKCEDLFMAGQKDQLRFGVDSWSDFRLTSDKPCCEAGDAVYYTASYAKDPLNNYAVKICKSKAKESQQYYHSLAVRQSLAVHFNIQQDCGHFLAEVPNRLLPWEDPDDPEKDEDDMEETEEDAKGETDGKNPKPCSEAASSQKENQGVMSKKQRSHVVVITREVPCLTVADFVRDSLAQHGKSPDLYERQVCLLLLQLCSGLEHLKPYHVTHCDLRLENLLLVHYQPGGTAQGFGPAEPSPTSSYPTRLIVSNFSQAKQKSHLVDPEILRDQSRLAPEIITATQYKKCDEFQTGILIYEMLHLPNPFDENPELKEREYTRADLPRIPFRSPYSRGLQQLASCLLNPNPSERILISDAKGILQCLLWGPREDLFQTFTACPSLVQRNTLLQNWLDIKRTLLMIKFAEKSLDREGGISLEDWLCAQYLAFATTDSLSCIVKILQHR
B11: CrkII SH2-NSH3 construct lacking the CSH3 domain (CrkII^ΔCSH3) (domain or fragment)
chain: MAGNFDSEERSSWYWGRLSRQEAVALLQGQRHGVFLVRDSSTSPGDYVLSVSENSRVSHYIINSSGPRPPVPPSPAQPPPGVSPSRLRIGDQEFDSLPALLEFYKIHYLDTTTLIEPVSRSRQGSGVILRQEEAEYVRALFDFNGNDEEDLPFKKGDILRIRDKPEEQWWNAEDSEGKRGMIPVPYVEKYRPASASVSALIGGNQEGSHPQPLGGPEPGPYAQPSVNT
B12: PEAK1^tandem-pT1165 phosphopeptide (residues 1152-1171) (peptide)
peptide: Ac-PPPLPKKMIIRAN[pT]EPISKD-NH2
B13: full length recombinant PEAK3 (PEAK3^FL) from insect cells (natural protein)
chain: MSSPEPPTEPPEPDNPTWSTQPTYSNLGQIRAHLLPSKACRLRTPGSLSTNPEPLPPPLPKKILTRTQSLPTRRTLHPSSIQVQPPRRPFLGSHSVDKSQAAVGPACLPAELTFGPADAPLGLSLRDLHSPEAVHTALAARQLQGLRTIYARLRARLMGGHPGPCHPGHSFRLLDSSPCAESGDALYYRVVRAHEDAWHILVAKVPKPGADVPHPWGLELQASLSPHFNLQGLCGLVPEGTLPGAPWRGAVALAAEVPERTVAQWLAEACTQPPEEFVWAVALLLLQLSAALKFLEAWGAALVELRPENLLLVAPRGCATTGPPRLLLTDFGRVCLQPPGPPGSPGPHAPQLGSLLRALLSLAAPSTTPLAAGLELLAAQLTRLRPSASRTRGALQALLWGPGPELRGRGAPLGPWLRALGPWLRVRRGLLVLRLAERAAGGEAPSLEDWLCCEYLAEATESSMGQALALLWD
modifications: phosphoserine at 69 (pS69)
B14: PEAK3 54-66 proline-rich motif peptide (peptide)
peptide: Ac-PLPPPLPKKILTR-NH2

Square brackets hold non-standard residues; d marks the D form. pT = C[C@@H](OP(=O)(O)O)[C@H](N)C(=O)O; pS = N[C@@H](COP(=O)(O)O)C(=O)O

Data set [1] concerns the target B2. Nature of the data set: SPR. (Surface plasmon resonance follows binding to a sensor surface in real time, without labels.)
The target in data set [2] is B7. Nature of the data set: ITC. In general terms: In ITC the heat of successive injections is recorded.
Data set [3] has as its target T1, human 14-3-3ε (human, UniProt P62258-1 1-255).
T1 sequence: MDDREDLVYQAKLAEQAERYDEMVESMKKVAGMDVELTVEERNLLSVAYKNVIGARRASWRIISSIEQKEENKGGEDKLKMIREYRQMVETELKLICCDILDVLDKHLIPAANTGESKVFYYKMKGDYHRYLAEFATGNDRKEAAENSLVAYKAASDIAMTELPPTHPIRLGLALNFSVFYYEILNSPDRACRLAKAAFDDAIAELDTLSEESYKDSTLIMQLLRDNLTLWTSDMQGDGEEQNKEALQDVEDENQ
The data set can be described thus: SPR.

Data set [4] deals with the molecule itself. Nature of the data set: SEC. In general terms: SEC sorts molecules by how far they enter the pores of the column.
Data set [5] deals with the molecule itself. Nature of the data set: SEC. The source holds these as a separate data set.
Data set [6] deals with the molecule itself. Nature of the data set: SEC-MALS.

As to B1, in data set [1], the binding result is listed as “binds”.

For the molecule B2, the “KD after pre-saturating the peptide with 14-3-3ɣ” value in data set [2] amounted to 700 nM.

For B3, the binding result in data set [3] is given as “binds”.

B4: the binding result in data set [1] is on record as “binds”.

For B5, the stoichiometry N – broadly, a count of units in the complex or per binding partner – in data set [4] was found to be 2.

With B6, in data set [5], the “stoichiometry N” value amounted to 2.

For B7, the Kd (in general, the constant that tells how readily two partners part at equilibrium) in data set [1] amounted to 600 nM.

Consider B8, for which the binding result in data set [3] is reported as “binds”.

As for B9, the Kd in data set [1] came out at 13000 nM.

For the molecule B10, the “stoichiometry N” value in data set [4] is 2.

As to B11, in data set [5], the “stoichiometry N” value worked out at 2.

As to B12, the binding result in data set [3] is recorded as “binds”.

Consider B13, for which the “stoichiometry N” value in data set [6] came to 2.

With B14, the binding result in data set [1] was “binds”.
